T1: CD32a-131H (Fc gamma receptor) (UniProt P12318 34-217)
T1 construct: The 131H allotype is as printed
T1 sequence (looked up): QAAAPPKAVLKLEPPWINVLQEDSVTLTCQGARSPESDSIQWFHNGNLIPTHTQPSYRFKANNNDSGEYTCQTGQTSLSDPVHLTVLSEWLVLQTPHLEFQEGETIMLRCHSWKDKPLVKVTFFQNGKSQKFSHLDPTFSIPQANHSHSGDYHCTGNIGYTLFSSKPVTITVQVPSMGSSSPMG

T2: CD32b (Fc gamma receptor) (UniProt P31994 43-217)
T2 sequence (looked up): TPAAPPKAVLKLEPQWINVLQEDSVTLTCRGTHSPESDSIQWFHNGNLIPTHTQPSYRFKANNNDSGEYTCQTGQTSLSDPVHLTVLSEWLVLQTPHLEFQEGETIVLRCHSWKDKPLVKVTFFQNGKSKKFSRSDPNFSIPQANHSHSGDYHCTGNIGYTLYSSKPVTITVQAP


Experiments:
[1] = molecular target: T3, Growth and differentiation factor-8 (GDF-8), mature human (human, UniProt O14793 267-375, conjugated to biotin in the ActRIIB ELISA and in the Fc gamma receptor SPR (site not stated)); experiment: competition ELISA (GDF-8 / ActRIIB-Fc)
T3 construct: also called myostatin; human GDF-8

[2] = molecular target: T3, Growth and differentiation factor-8 …; experiment: cell-based or functional assay
[3] = molecular target: T3, Growth and differentiation factor-8 …; experiment: SPR
[4] = molecular target: T4, CD16a-158V (Fc gamma receptor) (UniProt P08637 17-208); experiment: SPR (Biacore T200), OGD1.0.0 captured on biotin-GDF-8 on an SA chip, receptor flowed, single-cycle kinetics
T4 construct: The 158V allotype is as printed

[5] = molecular target: CD64 (Fc gamma receptor) (UniProt P12314 16-288, limits assumed); experiment: as above
[6] = molecular target: T1, CD32a-131H (Fc gamma receptor); experiment: as above
[7] = molecular target: T3, Growth and differentiation factor-8 …; experiment: competition ELISA: antibody inhibits biotin-GDF-8 (10 ng/ml) binding to coated ActRIIB-Fc
[8] = molecular target: T3, Growth and differentiation factor-8 …; experiment: cell-based or functional assay; remark: listed apart in the source
[9] = molecular target: T3, Growth and differentiation factor-8 …; experiment: SPR (BIACORE 3000), antibody captured on protein A, GDF-8 flowed, 1:1 Langmuir fit
[10] = molecular target: T2, CD32b (Fc gamma receptor); experiment: SPR (Biacore T200), OGD1.0.0 captured on biotin-GDF-8 on an SA chip, receptor flowed
[11] = molecular target: T3, Growth and differentiation factor-8 …; experiment: competition ELISA
[12] = molecular target: T3, Growth and differentiation factor-8 …; experiment: SPR (BIACORE 3000), antibody captured with anti-mouse IgG, GDF-8 flowed, 1:1 Langmuir fit
[13] = molecular target: T3, Growth and differentiation factor-8 …; experiment: SPR (BIACORE 3000), captured antibody, GDF-8 flowed, 1:1 Langmuir fit

Row | Binder | IC50 by ELISA compared to OGD1.0.0 [1] | IC50 by reporter gene assay compared to OGD1.0.0 [2] | Kd [3] | IC50 [7] | CAGA EC50 [8] | further results
1 | OGD1.0.0 humanized anti-GDF-8 antibody (VH0 and VL0) (antibody, human IgG1, kappa, also called OGD1.0.0 antibody) heavy: EVQLLESGGGLVQPGGSLRLSCAASGFTFSSYAMSWVRQAPGKGLEWVSTISSGGSYTSYPDSVKGRFTISRDNSKNTLYLQMNSLRAEDTAVYYCAKQDYAMNYWGQGTLVTVSSASTKGPSVFPLAPSSKSTSGGTAALGCLVKDYFPEPVTVSWNSGALTSGVHTFPAVLQSSGLYSLSSVVTVPSSSLGTQTYICNVNHKPSNTKVDKKVEPKSCDKTHTCPPCPAPEAAGAPSVFLFPPKPKDTLMISRTPEVTCVVVDVSHEDPEVKFNWYVDGVEVHNAKTKPREEQYNSTYRVVSVLTVLHQDWLNGKEYKCKVSNKALPAPIEKTISKAKGQPREPQVYTLPPSREEMTKNQVSLTCLVKGFYPSDIAVEWESNGQPENNYKTTPPVLDSDGSFFLYSKLTVDKSRWQQGNVFSCSVMHEALHNHYTQKSLSLSPGK light: DIQMTQSPSSLSASVGDRVTITCKASQDVSTAVAWYQQKPGKAPKLLIYSASYRYTGVPSRFSGSGSGTDFTLTISSLQPEDFATYYCQQHYSTPWTFGGGTKVEIKRTVAAPSVFIFPPSDEQLKSGTASVVCLLNNFYPREAKVQWKVDNALQSGNSQESVTEQDSKDSTYSLSSTLTLSKADYEKHKVYACEVTHQGLSSPVTKSFNRGEC | 1 fold of OGD1.0.0 | 1 fold of OGD1.0.0 | 0.00259 nM | 0.14 nM | 27.3 nM | binding result [4]: no binding (tested: 0-21 µM); binding result [5]: no binding (tested: 0-270 nM); binding result [6]: no binding (tested: 0-21 µM); Kd [9]: 0.00259 nM; Kd [10]: > 21000 nM
2 | OGD1.1.1 humanized anti-GDF-8 antibody (VH1 and VL1) (antibody, human IgG1, kappa) heavy: EVQLLESGGGLVQPGGSLRLSCAASGFTFSSYAMSWVRQAPGKGLEWVSTISSGGSYTSYPDSVKGRFTISRDNSKNTLYLQMNSLRAEDTAVYYCAKQDYAMNYWGQGTMVTVSSASTKGPSVFPLAPSSKSTSGGTAALGCLVKDYFPEPVTVSWNSGALTSGVHTFPAVLQSSGLYSLSSVVTVPSSSLGTQTYICNVNHKPSNTKVDKKVEPKSCDKTHTCPPCPAPEAAGAPSVFLFPPKPKDTLMISRTPEVTCVVVDVSHEDPEVKFNWYVDGVEVHNAKTKPREEQYNSTYRVVSVLTVLHQDWLNGKEYKCKVSNKALPAPIEKTISKAKGQPREPQVYTLPPSREEMTKNQVSLTCLVKGFYPSDIAVEWESNGQPENNYKTTPPVLDSDGSFFLYSKLTVDKSRWQQGNVFSCSVMHEALHNHYTQKSLSLSPGK light: DIQMTQSPSSLSASVGDRVTITCKASQDVSTAVAWYQQKPGKAPKLLIYSASYRYTGVPSRFSGSGSGTDFTLTISSLQPEDFATYYCQQHYSTPWTFGQGTKVEIKRTVAAPSVFIFPPSDEQLKSGTASVVCLLNNFYPREAKVQWKVDNALQSGNSQESVTEQDSKDSTYSLSSTLTLSKADYEKHKVYACEVTHQGLSSPVTKSFNRGEC |  |  |  | 0.14 nM | 26 nM | Kd [9]: 0.00725 nM
3 | OGD1.0.2 humanized anti-GDF-8 antibody (VH0 and VL2) (antibody, V domains shown, Intact antibody produced in COS-1 cells) VH: EVQLLESGGGLVQPGGSLRLSCAASGFTFSSYAMSWVRQAPGKGLEWVSTISSGGSYTSYPDSVKGRFTISRDNSKNTLYLQMNSLRAEDTAVYYCAKQDYAMNYWGQGTLVTVSS VL: DIQMTQSPSSLSASVGDRVTITCKASQDVSTAVAWYQQKPGKAPKLLIYAASSLQSGVPSRFSGSGSGTDFTLTISSLQPEDFATYYCQQHYSTPWTFGGGTKVEIK | 0.91 fold of OGD1.0.0 | 1.03 fold of OGD1.0.0 | 0.00146 nM |  |  | 
4 | OGD1.4.0 humanized anti-GDF-8 antibody (VH4 and VL0) (antibody, V domains shown, VH4 carries M99F and N101D in CDR3) VH: EVQLLESGGGLVQPGGSLRLSCAASGFTFSSYAMSWVRQAPGKGLEWVSTISSGGSYTSYPDSVKGRFTISRDNSKNTLYLQMNSLRAEDTAVYYCAKQDYAFDYWGQGTLVTVSS VL: DIQMTQSPSSLSASVGDRVTITCKASQDVSTAVAWYQQKPGKAPKLLIYSASYRYTGVPSRFSGSGSGTDFTLTISSLQPEDFATYYCQQHYSTPWTFGGGTKVEIK | 1.71 fold of OGD1.0.0 | 7.5 fold of OGD1.0.0 | 0.284 nM |  |  | 
5 | OGD1.0.4 humanized anti-GDF-8 antibody (VH0 and VL4) (antibody, V domains shown, VL4 is VL3 with S50A) VH: EVQLLESGGGLVQPGGSLRLSCAASGFTFSSYAMSWVRQAPGKGLEWVSTISSGGSYTSYPDSVKGRFTISRDNSKNTLYLQMNSLRAEDTAVYYCAKQDYAMNYWGQGTLVTVSS VL: not shown | 0.61 fold of OGD1.0.0 | 1.54 fold of OGD1.0.0 | 0.00246 nM |  |  | 
6 | OGD1.0.5 humanized anti-GDF-8 antibody (VH0 and VL5) (antibody, V domains shown, VL5 is VL3 with W96L) VH: EVQLLESGGGLVQPGGSLRLSCAASGFTFSSYAMSWVRQAPGKGLEWVSTISSGGSYTSYPDSVKGRFTISRDNSKNTLYLQMNSLRAEDTAVYYCAKQDYAMNYWGQGTLVTVSS VL: DIQMTQSPSSLSASVGDRVTITCRASQSISTALNWYQQKPGKAPKLLIYSASSLQSGVPSRFSGSGSGTDFTLTISSLQPEDFATYYCQQSYSTPLTFGGGTKVEIK | 5.94 fold of OGD1.0.0 |  | 0.057 nM |  |  | 
7 | OGD1.0.3 humanized anti-GDF-8 antibody (VH0 and VL3) (antibody, V domains shown) VH: EVQLLESGGGLVQPGGSLRLSCAASGFTFSSYAMSWVRQAPGKGLEWVSTISSGGSYTSYPDSVKGRFTISRDNSKNTLYLQMNSLRAEDTAVYYCAKQDYAMNYWGQGTLVTVSS VL: DIQMTQSPSSLSASVGDRVTITCRASQSISTALNWYQQKPGKAPKLLIYSASSLQSGVPSRFSGSGSGTDFTLTISSLQPEDFATYYCQQSYSTPWTFGGGTKVEIK | 0.96 fold of OGD1.0.0 | 0.85 fold of OGD1.0.0 | 0.00317 nM |  |  | 
8 | OGD1.3.0 humanized anti-GDF-8 antibody (VH3 and VL0) (antibody, V domains shown) VH: EVQLLESGGGLVQPGGSLRLSCAASGFTFSSYAMSWVRQAPGKGLEWVSAISSSGGYTYYADSVKGRFTISRDNSKNTLYLQMNSLRAEDTAVYYCAKQDYAMNYWGQGTLVTVSS VL: DIQMTQSPSSLSASVGDRVTITCKASQDVSTAVAWYQQKPGKAPKLLIYSASYRYTGVPSRFSGSGSGTDFTLTISSLQPEDFATYYCQQHYSTPWTFGGGTKVEIK |  |  |  |  |  | binding result [11]: binds
9 | Murine anti-GDF-8 monoclonal antibody (parental murine antibody) (antibody, V domains shown, also called mouse anti-GDF-8 antibody) VH: EVQLVESGGGLVKPGGSLKLSCAASGFTFSSYAMSWVRQTPEKRLEWVATISSGGSYTSYPDSVKGRFTISRDNAKNTLYLQMSSLRSEDTAMYYCARQDYAMNYWGQGTSVTVSS VL: DIEMTQSHKFMSTSVGDRVSITCKASQDVSTAVAWYQQKPGQSPKLLLYSASYRYTGVPDRFTGSGSGTDFTFTISSVQAEDLAVYYCQQHYSTPWTFGGGTKLEIK |  |  |  | 0.165 nM | 33.5 nM | Kd [12]: 0.0218 nM
10 | Chimeric mouse-human anti-GDF-8 antibody (murine variable domains and human constant domains) (antibody, human IgG1, V domains shown, also called Chimeric antibody) VH: EVQLVESGGGLVKPGGSLKLSCAASGFTFSSYAMSWVRQTPEKRLEWVATISSGGSYTSYPDSVKGRFTISRDNAKNTLYLQMSSLRSEDTAMYYCARQDYAMNYWGQGTSVTVSS VL: DIEMTQSHKFMSTSVGDRVSITCKASQDVSTAVAWYQQKPGQSPKLLLYSASYRYTGVPDRFTGSGSGTDFTFTISSVQAEDLAVYYCQQHYSTPWTFGGGTKLEIK |  |  |  | 0.165 nM | 24.2 nM | Kd [13]: 0.00299 nM

Reference: US20180057579A1 (Pfizer, published 2018)
